Consider 11 molecules from patent US20250002586A1 (CDR LIFE, published 2025).

Assay [1] has as its target T1, MAGE-A4 peptide … presented by HLA-A*02:01 on cells (human). In words: cell-based or functional assay.
The target in assay [2] is T2, HLA-A*02:01 in complex with the MAGE-A4 peptide … (human).
T2 construct: Recombinant complex as immobilised (500 RU) for SPR; also called HLA-A2/MAGE-A4 complex; pMHC-MAGE-A4 antigen
The assay is described as follows: SPR (Biacore T200), HLA-A*02:01/MAGE-A4 peptide complex on streptavidin chip, 1:1 Langmuir fit. In general terms: Surface plasmon resonance follows binding to a sensor surface in real time, without labels.
Description: (§1) Affinity characterization of HLA-A2/MAGE-A4×CD3 bispecific antibodies was performed by surface plasmon resonance (SPR). All experiments were conducted using a Biacore™ T200 Device (Cytiva). To determine the kinetic parameters of the binding of the bispecific antibodies to the HLA-A2/MAGE-A4 complex, a streptavidin chip (SAHC30M, XanTec) was coated according to the manufacturer's instructions with 500 RU HLA-A*02:01 in complex with the MAGE-A4 peptide. The resulting affinities presented herein correspond to the measurements performed with the respective monovalent antigen binding proteins. […] Uncoated channels were used for referencing. Data fitting was performed using a 1:1 Langmuir model.

Assay [3] deals with CD3 heterodimer (Acro Biosystems) (UniProt P07766 23-126). In words: SPR (Biacore T200), CD3 heterodimer on HC30M chip, 1:1 Langmuir fit.
The target in assay [4] is T1, MAGE-A4 peptide … presented by …. The assay is described as follows: cell-based or functional assay. This is another data set of the same source.
Assay [5] addresses T2, HLA-A*02:01 in complex with the MAGE-A4 …. In words: SPR, HLA-A*02:01/MAGE-A4 complex on streptavidin chip; measured in monovalent format.
Description: as §1

Positions count from the first letter of the chain named. Like-named read-outs stand apart in the source and are kept apart here.

CD3 heterodimer (Acro Biosystems), sequence (P07766 23-126, one chain of several): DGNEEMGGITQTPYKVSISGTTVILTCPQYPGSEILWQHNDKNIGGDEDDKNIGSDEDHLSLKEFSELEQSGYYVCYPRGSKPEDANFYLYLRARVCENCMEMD

B1: CDR-3 (bispecific antibody)
heavy: EVQLVESGGGSVQPGGSLRLSCAASGFTFSTYAMNWVRQAPGKGLEWVGRIRSKANNYATYYADSVKGRFTISRDDSKNTLYLQMNSLRAEDTATYYCVRHGNFGDSYVSWFAYWGQGTTVTVSSASTKGPSVFPLAPSSKSTSGGTAALGCLVKDYFPEPVTVSWNSGALTSGVHTFPAVLQSSGLYSLSSVVTVPSSSLGTQTYICNVNHKPSNTKVDKRVEPKSCGGGGSEVQLVESGGGLAQAGGSLRVSCVASGRPFTKYAWGWFRQAPGKAREFVATITWDGGKTDYADSVKGRFTISKDSAENSIYLQMNSLKPEDTAVYYCAADRNYCVGHRCYVRPDDYDYWGQGTQVTVSS
light: AVVTQEPSLTVSPGGTVTLTCGSSTGAVTTSNYANWVQQKPGKSPRGLIGGTNKRAPGVPARFSGSLLGGKAALTISGAQPEDEADYYCALWYSNHWVFGGGTKLTVLGTVAAPSVFIFPPSDEQLKSGTASVVCLLNNFYPREAKVQWKVDNALQSGNSQESVTEQDSKDSTYSLSSTLTLSKADYEKHKVYACEVTHQGLSSPVTKSFNRGEC
notes: no Fc; also called Format #3; monovalent Fab-VHH
Consider B1, for which, in assay [1], the “U20S cell killing, IC50” value came to 0.24 nM. The affinity in assay [2], expressed as Kd, was 1.9 nM.

B2: CDR-4 (bispecific antibody)
heavy: EVQLVESGGGLAQAGGSLRVSCVASGRPFTKYAWGWFRQAPGKAREFVATITWDGGKTDYADSVKGRFTISKDSAENSIYLQMNSLKPEDTAVYYCAADRNYCVGHRCYVRPDDYDYWGQGTQVTVSSGGGGSEVQLVESGGGSVQPGGSLRLSCAASGFTFSTYAMNWVRQAPGKGLEWVGRIRSKANNYATYYADSVKGRFTISRDDSKNTLYLQMNSLRAEDTATYYCVRHGNFGDSYVSWFAYWGQGTTVTVSSASTKGPSVFPLAPSSKSTSGGTAALGCLVKDYFPEPVTVSWNSGALTSGVHTFPAVLQSSGLYSLSSVVTVPSSSLGTQTYICNVNHKPSNTKVDKRVEPKSC
light: B1 light
notes: no Fc; also called Format #4; monovalent Fab-VHH HLA-A2/MAGE-A4 x CD3 bispecific
For the molecule B2, in assay [1], the “U20S cell killing, IC50” value turned out to be 0.5 nM. This molecule also returned a Kd in assay [2] of 1.3 nM.

B3: CDR-9 (bispecific antibody)
heavy: B1 heavy with S11L, T95V, T120L, A245V, A247P, V253L, E309K, K320R, P321A, Q356L
light: QAVVTQEPSLTVSPGGTVTLTCGSSTGAVTTSNYANWVQQKPGKSPRGLIGGTNKRAPGVPARFSGSLLGGKAALTISGAQPEDEADYYCALWYSNHWVFGGGTKLTVLGTVAAPSVFIFPPSDEQLKSGTASVVCLLNNFYPREAKVQWKVDNALQSGNSQESVTEQDSKDSTYSLSSTLTLSKADYEKHKVYACEVTHQGLSSPVTKSFNRGECGGGGSEVQLVESGGGLVQPGGSLRLSCVASGRPFTKYAWGWFRQAPGKAREFVATITWDGGKTDYADSVKGRFTISKDSAKNSIYLQMNSLRAEDTAVYYCAADRNYCVGHRCYVRPDDYDYWGQGTLVTVS
notes: no Fc
Turning to B3, the Kd in assay [3] came to 54 nM. That is a double-digit nanomolar value.

B4: CDR-6 (bispecific antibody)
heavy: B1 heavy
light: AVVTQEPSLTVSPGGTVTLTCGSSTGAVTTSNYANWVQQKPGKSPRGLIGGTNKRAPGVPARFSGSLLGGKAALTISGAQPEDEADYYCALWYSNHWVFGGGTKLTVLGTVAAPSVFIFPPSDEQLKSGTASVVCLLNNFYPREAKVQWKVDNALQSGNSQESVTEQDSKDSTYSLSSTLTLSKADYEKHKVYACEVTHQGLSSPVTKSFNRGECGGGGSEVQLVESGGGLAQAGGSLRVSCVASGRPFTKYAWGWFRQAPGKAREFVATITWDGGKTDYADSVKGRFTISKDSAENSIYLQMNSLKPEDTAVYYCAADRNYCVGHRCYVRPDDYDYWGQGTQVTVSS
With B4, the “U20S cell killing, IC50” value in assay [4] came out at 0.02 nM.

B5: CDR-1 (bispecific antibody)
heavy: EVQLVESGGGSVQPGGSLRLSCAASGFTFSTYAMNWVRQAPGKGLEWVGRIRSKANNYATYYADSVKGRFTISRDDSKNTLYLQMNSLRAEDTATYYCVRHGNFGDSYVSWFAYWGQGTTVTVSSASTKGPSVFPLAPSSKSTSGGTAALGCLVKDYFPEPVTVSWNSGALTSGVHTFPAVLQSSGLYSLSSVVTVPSSSLGTQTYICNVNHKPSNTKVDKRVEPKSC
light: EVQLVESGGGLAQAGGSLRVSCVASGRPFTKYAWGWFRQAPGKAREFVATITWDGGKTDYADSVKGRFTISKDSAENSIYLQMNSLKPEDTAVYYCAADRNYCVGHRCYVRPDDYDYWGQGTQVTVSSGGGGSAVVTQEPSLTVSPGGTVTLTCGSSTGAVTTSNYANWVQQKPGKSPRGLIGGTNKRAPGVPARFSGSLLGGKAALTISGAQPEDEADYYCALWYSNHWVFGGGTKLTVLGTVAAPSVFIFPPSDEQLKSGTASVVCLLNNFYPREAKVQWKVDNALQSGNSQESVTEQDSKDSTYSLSSTLTLSKADYEKHKVYACEVTHQGLSSPVTKSFNRGEC
notes: no Fc; also called Format #1; monovalent Fab-VHH HLA-A2/MAGE-A4 x CD3 bispecific
Consider B5, for which the “U20S cell killing, IC50” value in assay [1] was 0.1 nM. This molecule returned a dissociation constant Kd in assay [2] of 1.5 nM.

B6: CDR-2 (bispecific antibody)
heavy: B5 heavy
light: B4 light
notes: no Fc; also called Format #2; monovalent Fab-VHH HLA-A2/MAGE-A4 x CD3 bispecific
Consider B6, for which the “U20S cell killing, IC50” value in assay [1] was 0.18 nM. The affinity in assay [2], expressed as Kd, was 2.6 nM.

B7: CDR-5 (bispecific antibody)
heavy: B1 heavy
light: B5 light
B7: in assay [4], the “U20S cell killing, IC50” value came to 0.01 nM.

B8: CDR-15 (bispecific antibody)
heavy: EVQLVESGGGLVQPGGSLRLSCAASGFTFSTYAMNWVRQAPGKGLEWVGRIRSKYNNYATYYADSVKGRFTISRDDSKNTLYLQMNSLRAEDTAVYYCVRHGNFGDSYVSWFAYWGQGTLVTVSSASTKGPSVFPLAPSSKSTSGGTAALGCLVKDYFPEPVTVSWNSGALTSGVHTFPAVLQSSGLYSLSSVVTVPSSSLGTQTYICNVNHKPSNTKVDKRVEPKSCGGGGSSYELTQPPSVSVSPGQTASITCTADTLSRSYASWYQQKPGQSPVLVIYRDTSRPSGIPERFSGSNSGNTATLTISGTQAMDEADYYCATSDGSGSNFQLFGGGTKLTVLGGGGGGSGGGGSGGGGSGGGGSESQVLESGGGSVQPGGSLRLSCTVSGFSLSNYAMSWVRQAPGKGLEYIGIVSSGGTTYYASWAKGRFTISKDTSKNTVYLQMNSLRAEDTASYYCAKDLYYGPTTQSAFNLWGQGTSVTVSS
light: QAVVTQEPSLTVSPGGTVTLTCGSSTGAVTTSNYANWVQQKPGKSPRGLIGGTNKRAPGVPARFSGSLLGGKAALTISGAQPEDEADYYCALWYSNHWVFGGGTKLTVLGQPKAAPSVTLFPPSSEELQANKATLVCLISDFYPGAVTVAWKADSSPVKAGVETTTPSKQSNNKYAASSYLSLTPEQWKSHRSYSCQVTHEGSTVEKTVAPTECSGGGGSSYELTQPPSVSVSPGQTASITCTADTLSRSYASWYQQKPGQSPVLVIYRDTSRPSGIPERFSGSNSGNTATLTISGTQAMDEADYYCATSDGSGSNFQLFGGGTKLTVLGGGGGGSGGGGSGGGGSGGGGSESQVLESGGGSVQPGGSLRLSCTVSGFSLSNYAMSWVRQAPGKGLEYIGIVSSGGTTYYASWAKGRFTISKDTSKNTVYLQMNSLRAEDTASYYCAKDLYYGPTTQSAFNLWGQGTSVTVSS
On to B8, for which binding in assay [5] was put at a Kd of 41 nM.

B9: CDR-8 (bispecific antibody)
heavy: B8 heavy with S323R, D324P, G325S, Q470Y
light: B8 light with S310R, D311P, G312S, Q457Y
notes: no Fc; also called dual pMHC TCE; dual pMHC-targeting T cell engager in Fab-(scFv)2 format
Consider B9, for which the Kd in assay [5] is 0.1 nM. This Kd is about 410-fold lower than that of the molecule before.

B10: CDR-10 (bispecific antibody)
heavy: EVQLVESGGGLVQPGGSLRLSCAASGFTFSTYAMNWVRQAPGKGLEWVGRIRSKYNNYATYYADSVKGRFTISRDDSKNTLYLQMNSLRAEDTAVYYCVRHGNFGDSYVSWFAYWGQGTLVTVSSASTKGPSVFPLAPSSKSTSGGTAALGCLVKDYFPEPVTVSWNSGALTSGVHTFPAVLQSSGLYSLSSVVTVPSSSLGTQTYICNVNHKPSNTKVDKRVEPKSCGGGGSEVQLVESGGGLVQPGGSLRLSCVASGRPFTKYAWGWFRQAPGKAREFVATITWDGGKTDYADSVKGRFTISKDSAKNSIYLQMNSLRAEDTAVYYCAADRNYCVGHRCYVRPDDYDYWGQGTLVTVSS
light: QAVVTQEPSLTVSPGGTVTLTCGSSTGAVTTSNYANWVQQKPGKSPRGLIGGTNKRAPGVPARFSGSLLGGKAALTISGAQPEDEADYYCALWYSNHWVFGGGTKLTVLGTVAAPSVFIFPPSDEQLKSGTASVVCLLNNFYPREAKVQWKVDNALQSGNSQESVTEQDSKDSTYSLSSTLTLSKADYEKHKVYACEVTHQGLSSPVTKSFNRGECGGGGSEVQLVESGGGLVQPGGSLRLSCVASGRPFTKYAWGWFRQAPGKAREFVATITWDGGKTDYADSVKGRFTISKDSAKNSIYLQMNSLRAEDTAVYYCAADRNYCVGHRCYVRPDDYDYWGQGTLVTVSS
notes: no Fc
The molecule B10 returned a Kd in assay [3] of 11 nM.

B11: CDR-11 (bispecific antibody)
heavy: B10 heavy with D106N
light: B10 light with G23R, K44Q, S45A
notes: no Fc
With B11, in assay [3], the affinity, expressed as Kd, was 1.2 nM.

What is called Kd is the constant that tells how readily two partners part at equilibrium.
